Measured values: the nanobody polyreactivity screen of Harvey et al. (2022)

assay: yeast display, Sf9 membrane polyspecificity reagent, FACS + sequencing; frameworks hold sequencing errors
In short: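 Using colony PCR, genes from sorted yeast display clones were amplified, then sequenced on MiSeq at 2 × 250 and filtered by CDR length. The clones had been stained with 10% biotinylated, detergent-solubilized Sf9 membrane reagent for 1 hour at 4 °C and sorted by FACS into low and high (top ~1%) gates on anti-HA and streptavidin fluorescence. Polyreactivity labels come from the gate of origin.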

Row | Sequence | polyreactivity (PSR sort gate)
1 | QVQLVESGGGLVQAGRSLRLSCAASGFTFQSYDMGWYRQAPGKDRELVAAISWSGASTYYADSVKGRFTISRDNAKNTVYLQMNSLKPEDTAVYYCAAGEPTWWGYANDYWGQGTQVTVST | high polyreactivity
2 | QVQLVESGGGLVQAGRSLRLSCAASGGLFQKYPMGWYRHAPGKERELVAAISGSGGRTYYADSVKGRFTISRDNAKNTVYLQMNTLKPEDTEVYYCAATLNRYGYDYWGQGTQVTVST | high polyreactivity
3 | QVQLVESGGGLVQAGRSLRLSCAASGLTFLAYDMGWYRQAPGKVRQLVAAITGGGSTHYADSVKGRFTISRDNAKNTVYLQMTSLKPDDTAVSYCNADVYVYSVTSHYPSYRLDYWGHGTQVTVSS | high polyreactivity
4 | QVQLVESGGGLVQAGRSLRLSCAASGRIFADYAMGWYRQAPGKERQLVAAITSGGTTYADSVKGRFTISRDNAKNTVYLQMNSLKPEDSAVYYCAAQGQGRTGGFGKGSTYGYWGQGTQVTVSS | low polyreactivity
5 | QVQLVESGGGLVQAGRSLRLSCAASGRIFAQNAMGWYRQAPGKERELVAAISWGGGGTYYADSVKGRFTISRDNAKNTVYLQMNSLKPEDTAVYYCAADSPGFGAWDRYEYWGQGTQVTVSS | low polyreactivity
6 | QVQLVESGGGLVQAGRSLRLSCAASGRIFCYYAMGWYRQAPGKERELVAAITRGGSTYYADSVKGRFTISRDNAKNTVYLQMNSLKPEDTAVYYCAATISGLVKYENDYWGQGTQVTVSS | low polyreactivity
7 | QVQLVESGGGLVQAGRSLRLSCAASGRIFGPYTMGWYRQAPGKEREFVAAITRRGGSTYYADSVKGRFTISRDNAKNTGYLQRHSLKPEDTAVYYCAAVGQKRSLGYSWGQGTQVTVSS | low polyreactivity
8 | QVQLVESGGGLVQAGRSLRLSCAASGRIFPRNVMGWYRQAPGKERELVAAISSRGTRTYYADSVKGRFTISRDNAKNSVYLQLYSLKPEDTAVYYCAADGPYEGYDYWGQGTQVTVSS | high polyreactivity
9 | QVQLVESGGGLVQAGRSLRLSCAASGRIIYGYPMGWYRQAPGIERELVAAITATYYADSVKGRFTISRDNAKNTVYLQMNSLKPEDTAVYYCNAYLSPKQPLSPPDPTFEGGYWGQGTQVTVST | low polyreactivity
10 | QVQLVESGGGLVQAGRSLRLSCAASGRTFARYAMGGYRQAPGKERELVAAINSGGSTNYADSVKGRFTISRDNAKNTDYLQMNSLKPEDTAVYYCAADSYWKWYIAYPYYWGQGTQVTVSS | high polyreactivity
11 | QVQLVESGGGLVQAGRSLRLSCAASGRTFGANAMGWYRQAPGKERELVAAISYHGTRTYYADSVKGRFTISRDNAKNTVYLQMNSLKPEDTAVYYCAAVGKPGVYQEGDYWGQGTQVTVSS | high polyreactivity
12 | QVQLVESGGGLVQAGRSLRLSCAASGRTFGTNAMGWYRQAPGKERELVAAISRRGGSTYYADSVKGRFTISRDNAKNTVYLQMNCLKPEDTAVYYCASDFWYYQYPYGGGGYWGQGTQVTVSS | low polyreactivity
13 | QVQLVESGGGLVQAGRSLRLSCAASGRTFPPYDMGWYRQAPGKERELVAAITSDGSTSYADSVKGRFTISRDNAKNTVYLQMNRLKPEDTAVYYCNAEYGYSFGYGYYWWFDYWGQGTQVTVSA | high polyreactivity
14 | QVQLVESGGGLVQAGRSLRLSCAASGRTFPYYAMGWYRQAHGKEREFVAAISRRGASTYYADSVKGRFTISRDNAKNTVNLQMNSLKPEDTAVYYCNAVYRCYYSGELDYWGQGTQVTVSS | high polyreactivity
15 | QVQLVESGGGLVQAGRSLRLSCAASGRTFSVNAMGCYRQAPVKERELVAAISWDGGSTYYADSVKGRFTISRDNAKNTVYLQMISLKPEDTSVYDCNKDLYYAYDYWGQGSQVTVSS | low polyreactivity
16 | QVQLVESGGGLVQAGRSLRLSCAASGSIFEYYAMGWSRQAPGKEWELVAAITESGGSTYYADSVKGRFHNFTRQCEEYRLFTDEQPETGRYRGLLLAADAESYQNDYALDYWGQGTQETVSS | low polyreactivity
17 | QVQLVESGGGLVQAGRSLRLSCAASGSIFGWNAMGWYRQAPGKERELVAAINGGDRTNYADSVKGRFTISRDNAKNTVYLQMNSLNTEDTAVYYCGKDFYPTRPGWGGGEYNYWGQGTQVTVSS | low polyreactivity
18 | QVQLVESGGGLVQAGRSLRLSCAASGSIFTHNAMGWYRQAPGKERELVASITSRGGITYYADSVKGRFTISRDNAKNTVYLQMNSLKPEDTAVYYCAADLYIYPYDYWGQGTQVTVSS | low polyreactivity
19 | QVQLVESGGGLVQAGRSLRLSCAASGYIIYPNAMGWYRQAPGKERELVAAITSGGSTTYADSVKGRFTISRDNAKNTVYVQMNCLKPEDSAVYYCAARFVLWSRTYYSWGQGTQVTVSS | high polyreactivity
20 | QVQLVESGGGLVQAGRSLRLSCASSGSTFRVYDMGWYRQAPGNERELVASISYSVGSTYYADSVKGRFTISRDNAKNTVYLQMITLKPEDTEVYFCAARPSYQPSSLARYDYWGQGTQVSVSS | low polyreactivity
21 | QVQLVESGGGLVQAGRSLRLSCASSGSTIVNYAMGWYRQAPGKEMELVAAISRSGGRTYYADSVKGRFTISRDNAKNTVYLQMNSLKPEDTAVYYCARLLLSPEYGYWGQGTQVTVSS | high polyreactivity
22 | QVQLVESGGGLVQAGRTLRLSCAASGFTFGRYAMGWYRQAPGKERELVAAISRNGGRTYYADSVKGRFTISRDNAMNTVYFQMNSLKPEDTAVYNCAADGYERKTAQYDYWGQGTQVTVSS | high polyreactivity
23 | QVQLVESGGGLVQAGSSLRLSCAASGRTFGGYVMGWYRQAPGKERELVAAISSSAGSTYYADSVKGRFTISRDNAKNTVYLQMNSLKPEDTAVYYCAKRSYNPYDHYYRYQYGYWGQGTQVTVSS | high polyreactivity
24 | QVQLVESGGGLVQAGVILRLSCAASGSTFSLYAMGWYRKPPGKERELVAAISWSDGSTYYADSVKGRFTISRDNAKITVYLQMNSLKAEDTAVSYFANASSFAYYRFGYWGQVTQVTVSS | low polyreactivity
25 | QVQLVESGGGLVQAGVILRLSCAASGSTIGVNAMGWYRQPPAKERELVAAISLGGGRTYYADSVKGRFTISRDNAKNTVNLQMNCLKPEDTAVYYCNTDFGARMGYWGQGTQVTVSS | high polyreactivity
26 | QVQLVESGGGLVQAGVRLRLSFAASGFTFRLYTMGWYRQAPGKERELVAAITYSGDSTYYADSVKGRFTISRDNAKNTVYLQMNSLKPEDTAVYYCAARKYYARYYWGQGTQVTVSS | high polyreactivity
27 | QVQLVESGGGLVQAGVSLRLRCASSGSIFRRNVMGWYRQAPGKERELVAAISWSGGRTYYADSVKGRFTISRDNAKNTVYLQMNSLKPEDTAVYYCAAENGYYAYDYWGQGTQVTVSS | high polyreactivity
28 | QVQLVESGGGLVQAGVSLRLSCAAAGITFGDYSMGWYRQEPGKEMELVAGIYWSGDGTSYADSVKGRFTISRDNAKNTVYLQMYRLKPEDTAVYYFAAYWYYYLMDYWGQGTQVSVSS | low polyreactivity
29 | QVQLVESGGGLVQAGVSLRLSCAASAFILEGYAMGWYTQAPGKERELVAAISDSGGSTYYADSVKGRFTISRDNAKNTVYLQMNSLKPEDTAVYYCATAYYWWTAYSYSYDHWGQGTQVTVSS | high polyreactivity
30 | QVQLVESGGGLVQAGVSLRLSCAASGFIFGLYVMGWYRQSPGKERELVAGITWTGGTTYYADSVKGRFTISRDNAKNTVYLQMNSLKPEDTAVYYCATRNYAVVPSVRREGYYWGQGTQVTVSS | low polyreactivity
